Assay [1] addresses human GPRC5D (human) (UniProt Q9NZD1). The experiment in a line: flow cytometry on human GPRC5D-CHOK1 cells (negative control).
Assay [2] has as its target cynomolgus monkey GPRC5D (cynomolgus monkey). The experiment in a line: flow cytometry on cynomolgus monkey GPRC5D-CHOK1 cells (negative control).
For assay [3], the target named is human GPRC5D (human) (UniProt Q9NZD1). The experiment in a line: flow cytometry on human GPRC5D-CHOK1 cells (negative control). The source holds these as a separate data set. On the technique in general: Flow cytometry measures light scatter and fluorescence of single cells or particles in a stream.
The target is the same in assay [4]. The experiment in a line: flow cytometry on NCI-H929 cells (negative control).

Chain of human GPRC5D (human) (Q9NZD1 whole entry): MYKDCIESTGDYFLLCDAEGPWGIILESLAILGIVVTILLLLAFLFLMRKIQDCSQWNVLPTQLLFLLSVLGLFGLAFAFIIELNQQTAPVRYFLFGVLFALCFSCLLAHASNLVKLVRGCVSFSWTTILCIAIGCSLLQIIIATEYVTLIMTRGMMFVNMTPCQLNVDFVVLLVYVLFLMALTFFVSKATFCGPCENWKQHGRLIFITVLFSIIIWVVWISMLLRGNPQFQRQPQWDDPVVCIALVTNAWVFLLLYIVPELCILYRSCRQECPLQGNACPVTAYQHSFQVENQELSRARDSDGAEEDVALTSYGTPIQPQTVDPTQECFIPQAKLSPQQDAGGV

In the case of “IgG1 AA (negative control, purchased from Biointron, Cat. No. B109802) (antibody)”, the Top mean fluorescence intensity (Top MFI) with human GPRC5D (human) [1] is 51 MFI; in assay [2], 2040 MFI; with human GPRC5D (human) [3], 1610 MFI; in the assay with human GPRC5D (human) [4] it was 165 MFI.

Source of the values: EP4714974A1.
